Data on two molecules can be found in publication PMC6377231, “Structure of a bacterial ATP synthase” (eLife, 2019).

Holding throughout (assay): cryo-EM structure; intact Bacillus PS3 ATP synthase in GDN, three rotational states at 3.0, 3.0 and 3.2 Å; focused refinement of the membrane-embedded region at 3.3 Å
Data set [1] has as its target T1, Bacillus PS3 ATP synthase subunit γ (Bacillus PS3, UniProt P09222 5-286).
T1 construct: ATP synthase subunit gamma of Bacillus PS3, expressed from plasmid pTR-ASDS (Suzuki et al., 2002); source: E. coli strain DK8, plasmid pTR-ASDS; purified as part of the intact ATP synthase (GDN, HisTrap, Superose 6)
Conditions: both partners purified.

The target of data set [2] is T2, Bacillus PS3 ATP synthase subunit α (Bacillus PS3, UniProt P09219 1-502).
T2 construct: ATP synthase subunit alpha of Bacillus PS3, expressed from plasmid pTR-ASDS (Suzuki et al., 2002); Three copies stand in the complex (α3β3γδε ab2c10); Residues in the model are in Supplementary file 1; also called αDP; source: E. coli strain DK8, plasmid pTR-ASDS; purified as part of the intact ATP synthase (GDN, HisTrap, Superose 6)
T2 sequence (P09219 whole entry): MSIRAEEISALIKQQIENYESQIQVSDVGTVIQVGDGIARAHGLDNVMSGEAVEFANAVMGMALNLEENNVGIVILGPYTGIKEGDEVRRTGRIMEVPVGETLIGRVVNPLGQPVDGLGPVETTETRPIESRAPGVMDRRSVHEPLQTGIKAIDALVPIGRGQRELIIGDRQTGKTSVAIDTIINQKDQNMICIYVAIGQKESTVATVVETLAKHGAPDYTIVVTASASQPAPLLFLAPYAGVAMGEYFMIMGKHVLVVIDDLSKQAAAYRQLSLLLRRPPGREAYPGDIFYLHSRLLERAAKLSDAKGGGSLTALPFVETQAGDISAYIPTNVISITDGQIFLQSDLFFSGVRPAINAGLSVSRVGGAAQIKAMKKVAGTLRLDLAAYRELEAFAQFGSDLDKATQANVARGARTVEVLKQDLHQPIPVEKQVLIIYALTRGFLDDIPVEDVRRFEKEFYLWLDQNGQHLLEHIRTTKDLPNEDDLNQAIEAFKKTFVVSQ
Conditions: both partners purified.

Data set [3] concerns the molecule itself.

T1 sequence (P09222 5-286): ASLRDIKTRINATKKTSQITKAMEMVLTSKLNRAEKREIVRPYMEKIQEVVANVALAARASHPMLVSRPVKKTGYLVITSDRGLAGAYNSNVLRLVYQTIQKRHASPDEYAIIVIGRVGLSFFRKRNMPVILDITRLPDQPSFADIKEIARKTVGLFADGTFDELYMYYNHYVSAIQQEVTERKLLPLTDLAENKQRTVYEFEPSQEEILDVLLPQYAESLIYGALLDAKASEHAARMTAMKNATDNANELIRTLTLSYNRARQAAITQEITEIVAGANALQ

B1: Bacillus PS3 ATP synthase subunit ε (natural protein, UniProt P07678 1-132, looked up)
chain: MKTIHVSVVTPDGPVYEDDVEMVSVKAKSGELGILPGHIPLVAPLEISAARLKKGGKTQYIAVSGGFLEVRPDNVTILAQAAERAEDIDVLRAKARKSGRTPLQSQQDDIDFKRAELALKRAMNRLSVAEMK
notes: ATP synthase subunit epsilon of Bacillus PS3, expressed from plasmid pTR-ASDS (Suzuki et al., 2002); source: E. coli strain DK8, plasmid pTR-ASDS; purified as part of the intact ATP synthase (GDN, HisTrap, Superose 6)
For the molecule B1, the binding result in data set [1] and in data set [2] was “binds” each time.

B2: Bacillus PS3 ATP synthase subunit c (natural protein)
chain: MSLGVLAAAIAVGLGALGAGIGNGLIVSRTIEGIARQPELRPVLQTTMFIGVALVEALPIIGVVFSFIYLGR
notes: ATP synthase subunit c of Bacillus PS3, expressed from plasmid pTR-ASDS (Suzuki et al., 2002); Forms the ring of 10 c-subunits in the FO region; also called c-ring; c10-ring; source: E. coli strain DK8, plasmid pTR-ASDS; purified as part of the intact ATP synthase (GDN, HisTrap, Superose 6); copies: 10
Regarding B2, in data set [3], the “stoichiometry N” value worked out at 10.

One may read the stoichiometry N as the number of molecules, sites or subunits per partner or assembly.
